{"source": "patent US11001846B2", "about": "“Aptamers, nucleic acid molecules, polynucleotides, synthetic antibodies compositions for detecting PRRS viruses and treating PRRS virus infection” (AEROVIRUS TECHNOLOGIES INC., priority 2015, dated 2021)", "molecules": {"B1": {"name": "A505: ssDNA aptamer binding type 2 PRRSV M-S-S-GP5 complex (nucleic acid)", "DNA": "GGGCGACCCTGAAGAGTTTGTAATCTGCGATTTTAAAGTTGAGTCGTCGCGAAACGGTGAAAGCCGTAGGTTGCCC", "modifications": "DNA, backbone and methylation of C not given here"}}, "key": {"[1]": {"test_system": "LHVA-3 PRRS virus", "experiment": "MTT assay, in vitro protection of PAMs or MARC-145 cells from LHVA-3 infection", "type": "cell-based, PRRSV", "details": "for protective effect when added after virus incubation: FIG. 9d", "procedure": "PAMs or MARC-145 cells were plated in 96 well plates (7×10^4/well) one day prior to the assay. […] Following infection, cells were incubated in growth medium at 37° C. for 72 hours. MTT assay was performed by adding 4 mg/ml MTT (3-[4,5-Dimethylthiazol-2-yl]-2,5-diphenyltetrazolium bromide dissolved in PBS to the cell cultures and incubation at 37° C. for 3 hours. Plates were then centrifuged at 800×g for 10 min. Supernatants were aspirated and the formazan dye was dissolved in 150 μl/well of isopropyl alcohol, and O.D. values were determined with an ELISA reader at 570 nm.\nIn Vitro Viral Protection Prior to Viral Infection PAMs or MARC-145 cells were plated on 96 well plates (7×10^4/well) 24 hours prior to the experiment. Each well was washed twice with DPBS prior to treating the cells with various amounts of A505 (12.5 to 2000 pmole) at 37° C. for the indicated time points. […] Following incubation, cells were transferred to growth medium and incubated at 37° C. for 72 hours. Thereafter an MTT assay was implemented as described.\nIn Vitro Viral Protection Following Viral Infection—PAMs or MARC-145 cells were plated on 96 well plates (7×10^4/well) 24 hours prior to viral infection. Viral infection was effected as described above. Infected cells were gently washed with DPBS for 3 times. Cells were then treated with various amounts of A505 (12.5 to 2000 pmole) for 1 hour at 37° C. Following incubation, cells were transferred to growth medium and incubated at 37° C. for 72 hours. Thereafter an MTT assay was implemented as described."}, "[2]": {"test_system": "NVSL PRRS virus", "experiment": "MTT assay, in vitro protection of PAMs or MARC-145 cells from NVSL infection", "type": "cell-based, PRRSV", "details": "500 pmole, compared to non-infected MARC-145 cells, FIG. 9b", "procedure": "PAMs or MARC-145 cells were plated in 96 well plates (7×10^4/well) one day prior to the assay. Cells were washed twice with Dulbecco's phosphate buffered saline (DPBS) prior to an one (1) hour incubation with Hank's balanced salt solution (HBSS) supplemented with 25 mM HEPES and 4 mM sodium bicarbonate (pH 7.3) including 500TCID50 of LHVA-3 or 500TCID50 of NVSL in the presence or absence of the indicated aptamer concentration. Following infection, cells were incubated in growth medium at 37° C. for 72 hours. MTT assay was performed by adding 4 mg/ml MTT (3-[4,5-Dimethylthiazol-2-yl]-2,5-diphenyltetrazolium bromide dissolved in PBS to the cell cultures and incubation at 37° C. for 3 hours. Plates were then centrifuged at 800×g for 10 min. Supernatants were aspirated and the formazan dye was dissolved in 150 μl/well of isopropyl alcohol, and O.D. values were determined with an ELISA reader at 570 nm.\nIn Vitro Viral Protection Prior to Viral Infection PAMs or MARC-145 cells were plated on 96 well plates (7×10^4/well) 24 hours prior to the experiment. Each well was washed twice with DPBS prior to treating the cells with various amounts of A505 (12.5 to 2000 pmole) at 37° C. for the indicated time points. Cells were then washed twice with DPBS and infected with 500 TCID50 LHVA-3 (or NVSL or VR-2332 or Lelystad) for 1 hour in enriched HBSS. […]"}, "[3]": {"test_system": "LHVA-93-3 PRRS virus", "experiment": "Light microscopy and immunofluorescence of infected cells", "type": "cell-based, PRRSV"}, "[4]": {"test_system": "type 2 PRRSV (VR2332, LHVA-93-3, NVSL-93-2335)", "experiment": "Strain-specific neutralization (FIG. 11), type 2 strains", "type": "cell-based"}, "[5]": {"test_system": "type-1 Lelystad PRRS virus", "experiment": "Strain-specific neutralization (FIG. 11), type 1 strain", "type": "cell-based, PRRSV", "procedure": "In Vitro Viral Protection Prior to Viral Infection PAMs or MARC-145 cells were plated on 96 well plates (7×10^4/well) 24 hours prior to the experiment. Each well was washed twice with DPBS prior to treating the cells with various amounts of A505 (12.5 to 2000 pmole) at 37° C. for the indicated time points. Cells were then washed twice with DPBS and infected with 500 TCID50 LHVA-3 (or NVSL or VR-2332 or Lelystad) for 1 hour in enriched HBSS. Following incubation, cells were transferred to growth medium and incubated at 37° C. for 72 hours. Thereafter an MTT assay was implemented as described."}, "[6]": {"test_system": "various PRRSV strains", "experiment": "In-vivo protection of swine against various PRRSV strains (Example 4)", "details": "15 ug/Kg, treatment on the day of infection; each strain 40TCID50/ml; FIG. 13a", "procedure": "Swine were inoculated intranasally with sub-lethal infectious fluid containing 40TCID50/ml PRRS virus (LHVA-93-3) with or without 2.5 nmole A505 aptamer for different time intervals. Pig body weight was monitored for 2 weeks. Viral titer in the lungs was determined by the CPE titration method (OIE Terrestrial Manual—May 2015, Chapter 2.8.7—Porcine Reproductive and Respiratory Syndrome, section 1.1.3). Other pigs were sacrificed 6 days following viral inoculation and lungs were removed and homogenized in PBS 0.1% BSA (10% w/v). Following homogenization, samples were centrifuged to remove debris and stored at −80° C.\nThe cells/viruses were incubated for 2-5 days and observe daily for a CPE. At day 2, seed macrophages in new microtitre plates. Fifty (50) μl of the supernatants were transferred from the plates of the first passage to the corresponding wells of the freshly seeded plates (second passage). The wells were incubated for 2-5 days and observed daily for a CPE. The results of the CPE assays were presented as log TCID50.\nWere implemented as described hereinabove. A dose of 15 ug/Kg of A505 was used."}, "[7]": {"test_system": "type 2 PRRSV", "details": "after MTT screening of 10 candidates", "source_text": "Using various tetrazolium (MTT) colorimetric assay procedures^[xxxvi], these aptamers have been “screened” to identify the ones having the highest and fastest binding capabilities for detection and therapeutics purposes for both types of PRRSV. It should be pointed out that the aptamer having the quickest binding efficiency but not necessarily the highest binding strength is the most suitable one for the biosensor."}, "[8]": {"test_system": "MARC-145 cells", "details": "no virus; FIG. 10c"}}, "data": [{"molecule": "B1", "values": [{"measurement": "survival rate of cells pre-incubated with aptamer then washed before infection", "setting": "[1]; 500 pmole for 30 min or 60 min, repeated washing, then virus, FIG. 9c", "result": "no significant difference between the survival rate of non-treated and treated cells"}, {"measurement": "protection against infection of the cells", "setting": "[1]; 500 pmole, LHVA-3, compared to non-infected MARC-145 cells, FIG. 9b", "result": "~60", "unit": "%"}, {"measurement": "protective effect when added after virus incubation", "setting": "[1]; 500 TCID50 LHVA-93-3 for 30 min prior to 500 pmole aptamer, vs infected cells", "result": "highly significant difference"}, {"measurement": "protective effect when added after virus incubation", "setting": "[1]; 500 TCID50 LHVA-93-3 for 60 min prior to 500 pmole aptamer", "result": "not significant"}, {"measurement": "virus-associated cell-death", "setting": "[1]; cells treated with aptamer prior to viral infection, FIG. 9a", "result": "significant reduction in virus-associated cell-death"}, {"measurement": "protection against infection of the cells", "setting": "[2]", "result": "~70", "unit": "%"}, {"measurement": "cell morphology of infected cells, light microscopy", "setting": "[3]; MARC-145 cells, virus in the presence of aptamer, FIG. 10b", "result": "destruction was inhibited and the cell morphology was largely conserved"}, {"measurement": "viral presence by immunofluorescence", "setting": "[3]; two days incubation with virus and aptamer, FIG. 10e", "result": "almost entirely prevented"}, {"measurement": "neutralization of PRRS virus strains", "setting": "[4]", "result": "only the type 2 PRRSV have been neutralized"}, {"measurement": "effect on type-1 Lelystad PRRS virus", "setting": "[5]", "result": "has not effect"}, {"measurement": "prevention of infection (lung virus titer) by various strains", "setting": "[6]", "result": "efficient in preventing the infection by all tested strains of PRRSV"}, {"measurement": "binding capabilities from biosensing and therapeutic perspectives", "setting": "[7]", "result": "highest binding capabilities"}, {"measurement": "morphology of cells treated with aptamer alone", "setting": "[8]", "result": "did not affect the morphology of the cells"}]}]}
